Experimental data: US20200270365A1

Assays:
biotin-PCSK9-his (human) [1] = biological target: biotin-PCSK9-his (human) (UniProt Q8NBP7); experiment: competitive ELISA, one antibody coated, biotin-PCSK9-his + 50-fold competing antibody; competitor 21B12 (itself)
biotin-PCSK9-his (human) [2] = biological target: biotin-PCSK9-his (human) (UniProt Q8NBP7); experiment: competitive ELISA, one antibody coated, biotin-PCSK9-his + 50-fold competing antibody; competitor h011-3133-YTE

IR (%) (biotin-PCSK9-his (human) [1]): 97.8%
IR (%) (biotin-PCSK9-his (human) [2]): 3.01%
Substance: 21B12 (U.S. Pat. No. 8,030,457B2) (antibody)
